Data: PMC9119680

Legend:
Test in all cases: Co-IP with immunoblot quantification
BLOS2 = BLOS2 (UniProt Q9CWG9); conditions: uninfected cells cultured overnight; IP: BLOS1; parent: est. 100; read off a plot
KXD1 = KXD1 (UniProt Q80XH1); conditions: uninfected cells cultured overnight; IP: BLOS1; parent: est. 100; read off a plot
PALLIDIN = PALLIDIN (UniProt Q9R0C0); conditions: uninfected cells cultured overnight; IP: BLOS1; parent: est. 100; read off a plot
SNAPIN = SNAPIN (UniProt Q9Z266); conditions: read off a plot
Sequence of UniProt Q9Z266 (Q9Z266 whole entry): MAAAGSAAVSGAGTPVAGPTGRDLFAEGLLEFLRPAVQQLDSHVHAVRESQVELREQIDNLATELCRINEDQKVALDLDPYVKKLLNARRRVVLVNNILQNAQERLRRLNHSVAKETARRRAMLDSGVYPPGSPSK

Sequence of UniProt Q9R0C0 (Q9R0C0 whole entry): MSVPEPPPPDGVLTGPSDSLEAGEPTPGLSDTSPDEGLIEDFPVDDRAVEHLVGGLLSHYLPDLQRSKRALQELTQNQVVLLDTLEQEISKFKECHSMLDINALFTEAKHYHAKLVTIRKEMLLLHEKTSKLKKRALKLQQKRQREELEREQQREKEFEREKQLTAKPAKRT
Sequence of UniProt Q9CWG9 (Q9CWG9 whole entry): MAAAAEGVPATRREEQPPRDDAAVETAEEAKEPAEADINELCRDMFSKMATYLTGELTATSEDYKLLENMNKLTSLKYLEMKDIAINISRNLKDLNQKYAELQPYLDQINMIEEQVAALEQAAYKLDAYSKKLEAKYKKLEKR
Sequence of UniProt Q80XH1 (Q80XH1 whole entry): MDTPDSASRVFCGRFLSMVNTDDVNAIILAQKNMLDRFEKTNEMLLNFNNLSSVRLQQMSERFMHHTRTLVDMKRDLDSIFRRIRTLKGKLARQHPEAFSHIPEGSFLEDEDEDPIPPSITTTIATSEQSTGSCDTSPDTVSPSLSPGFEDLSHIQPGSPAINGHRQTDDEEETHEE

Q: What does the source list for “BLOS1 [biogenesis of lysosome-related organelles complex-1 (BLOC-1) subunit 1] (from UniProt O55102) mBloc1s1 (first XAT hexapeptide-repeat motif EALDVH changed to EVVDH or EVDH)”?
A: percent of parent (BLOS2): 5%; percent of parent (KXD1): 10%; percent of parent (PALLIDIN): 22%; response (SNAPIN; parent: est. 0.67): 0.07; response (SNAPIN; parent: est. 1.0): 0.18; percent of parent (SNAPIN; uninfected cells cultured overnight, IP: BLOS1, parent: est. 100): 10%
